Test results published in patent publication US20220363757A1 (SYMPHOGEN A S, published 2022).

T1: human LAG-3 domain 1-2 Fc fusion, point mutation #10 S54A (human, UniProt P18627 23-266)
T1 construct: not shown: human IgG1 Fc, AA P101-K330
T1 sequence: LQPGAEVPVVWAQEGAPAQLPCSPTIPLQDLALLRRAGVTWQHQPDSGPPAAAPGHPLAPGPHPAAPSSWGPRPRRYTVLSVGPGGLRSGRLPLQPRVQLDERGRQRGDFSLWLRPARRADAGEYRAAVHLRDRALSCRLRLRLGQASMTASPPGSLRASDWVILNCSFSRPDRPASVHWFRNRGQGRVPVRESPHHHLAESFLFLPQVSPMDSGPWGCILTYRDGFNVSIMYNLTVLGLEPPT

T2: human LAG-3 domain 1-2 Fc fusion, point mutation #11 L56A (human, UniProt P18627 23-266)
T2 construct: not shown: human IgG1 Fc, AA P101-K330
T2 sequence: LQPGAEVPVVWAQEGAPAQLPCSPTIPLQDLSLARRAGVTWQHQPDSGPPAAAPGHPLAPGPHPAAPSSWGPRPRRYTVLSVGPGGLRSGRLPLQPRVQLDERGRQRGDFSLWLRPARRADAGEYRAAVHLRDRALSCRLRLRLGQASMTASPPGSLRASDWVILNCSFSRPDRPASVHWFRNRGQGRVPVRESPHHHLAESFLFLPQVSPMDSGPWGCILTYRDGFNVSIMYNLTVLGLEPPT

T3: human LAG-3 domain 1-2 Fc fusion, point mutation #13 R58A (human, UniProt P18627 23-266)
T3 construct: not shown: human IgG1 Fc, AA P101-K330
T3 sequence: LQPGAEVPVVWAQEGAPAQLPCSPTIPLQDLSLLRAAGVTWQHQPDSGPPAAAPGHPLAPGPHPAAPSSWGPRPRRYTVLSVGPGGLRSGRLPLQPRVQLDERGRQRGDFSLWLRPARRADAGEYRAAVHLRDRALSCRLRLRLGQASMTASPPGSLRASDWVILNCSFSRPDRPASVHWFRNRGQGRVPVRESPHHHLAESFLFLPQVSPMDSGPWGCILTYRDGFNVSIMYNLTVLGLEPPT

T4: human LAG-3 domain 1-2 Fc fusion, point mutation #22 A75S (human, UniProt P18627 23-266)
T4 construct: not shown: human IgG1 Fc, AA P101-K330
T4 sequence: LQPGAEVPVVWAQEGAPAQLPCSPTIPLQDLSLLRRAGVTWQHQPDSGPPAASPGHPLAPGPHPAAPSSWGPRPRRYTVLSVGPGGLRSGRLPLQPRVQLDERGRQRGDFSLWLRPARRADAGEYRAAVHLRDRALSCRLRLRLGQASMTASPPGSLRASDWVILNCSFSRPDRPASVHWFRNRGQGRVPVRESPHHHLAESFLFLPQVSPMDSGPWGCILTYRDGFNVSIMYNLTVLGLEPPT

T5: human LAG-3 domain 1-2 Fc fusion, point mutation #9 D52A (human, UniProt P18627 23-266)
T5 construct: not shown: human IgG1 Fc, AA P101-K330
T5 sequence: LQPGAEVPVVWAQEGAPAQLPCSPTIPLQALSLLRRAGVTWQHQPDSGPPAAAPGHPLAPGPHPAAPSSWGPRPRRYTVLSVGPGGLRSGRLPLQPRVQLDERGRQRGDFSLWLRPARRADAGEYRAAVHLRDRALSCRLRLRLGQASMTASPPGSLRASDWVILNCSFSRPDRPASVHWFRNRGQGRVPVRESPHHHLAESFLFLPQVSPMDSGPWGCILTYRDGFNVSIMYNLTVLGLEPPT

T6: human LAG-3 domain 1-2 Fc fusion, point mutation #31 P84A (human, UniProt P18627 23-266)
T6 construct: not shown: human IgG1 Fc, AA P101-K330
T6 sequence: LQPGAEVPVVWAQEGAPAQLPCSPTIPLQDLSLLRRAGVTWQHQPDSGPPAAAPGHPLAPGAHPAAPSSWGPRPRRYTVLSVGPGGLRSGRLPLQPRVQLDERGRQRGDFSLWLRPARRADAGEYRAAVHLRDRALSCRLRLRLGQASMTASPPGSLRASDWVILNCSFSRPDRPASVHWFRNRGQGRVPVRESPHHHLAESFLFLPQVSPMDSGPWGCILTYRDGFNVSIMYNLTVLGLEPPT

T7: human LAG-3 domain 1-2 Fc fusion, point mutation #78 R154A (human, UniProt P18627 23-266)
T7 construct: not shown: human IgG1 Fc, AA P101-K330
T7 sequence: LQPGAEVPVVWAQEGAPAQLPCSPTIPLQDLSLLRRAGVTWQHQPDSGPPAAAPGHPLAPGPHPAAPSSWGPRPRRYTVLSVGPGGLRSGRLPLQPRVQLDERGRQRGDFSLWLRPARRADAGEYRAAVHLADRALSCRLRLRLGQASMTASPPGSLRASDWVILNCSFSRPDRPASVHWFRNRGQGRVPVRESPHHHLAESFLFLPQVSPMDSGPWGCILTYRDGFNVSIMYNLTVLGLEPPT

T8: human LAG-3 domain 1-2 Fc fusion, point mutation #56 G112A (human, UniProt P18627 23-266)
T8 construct: not shown: human IgG1 Fc, AA P101-K330
T8 sequence: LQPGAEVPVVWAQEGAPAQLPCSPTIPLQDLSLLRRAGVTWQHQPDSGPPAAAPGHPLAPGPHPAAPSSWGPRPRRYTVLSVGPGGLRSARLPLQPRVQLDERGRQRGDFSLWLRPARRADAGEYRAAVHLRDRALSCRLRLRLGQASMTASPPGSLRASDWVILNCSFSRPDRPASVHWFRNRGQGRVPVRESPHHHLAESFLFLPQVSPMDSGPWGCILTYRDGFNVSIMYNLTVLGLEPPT

T9: human LAG-3 domain 1-2 Fc fusion, point mutation #5 P46A (human, UniProt P18627 23-266)
T9 construct: not shown: human IgG1 Fc, AA P101-K330
T9 sequence: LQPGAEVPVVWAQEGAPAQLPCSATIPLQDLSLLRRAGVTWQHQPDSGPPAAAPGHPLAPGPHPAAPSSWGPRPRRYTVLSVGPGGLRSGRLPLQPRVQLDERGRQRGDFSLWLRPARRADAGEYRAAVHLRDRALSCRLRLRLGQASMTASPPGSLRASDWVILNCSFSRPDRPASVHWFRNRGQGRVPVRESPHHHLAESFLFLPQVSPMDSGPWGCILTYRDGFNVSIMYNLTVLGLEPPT


Experiments:
Assay in all cases: SPR, Fab over captured mutant LAG-3-Fc;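 further: fc fusion variants captured on anti-human IgG Fc sensor, Fab injected with association then dissociation phases, KD obtained from Langmuir one-to-one fit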
[1] = molecular target: T1, human LAG-3 domain 1-2 Fc fusion, point …
Method: (§1) The LAG-3 fusion proteins were immobilized onto a G-a-hu-IgG Fc SensEye® (Ssens BV, The Netherlands) for 15 minutes using a Continuous Flow Microspotter (CFM, Wasatch Microfluidics, Salt Lake City, US). After spotting, the SensEye® was positioned in an IBIS MX96 biosensor and captured proteins were evaluated for binding affinity. […] Fab association was performed for 15 minutes and antigen dissociation was performed for 15 minutes. The recorded binding responses were fitted to a simple Langmuir 1:1 binding model with Scrubber 2 software for calculation of the on-rate (kon or ka), off-rate (koff or kd) and affinity (KD) constants.

[2] = molecular target: T2, human LAG-3 domain 1-2 Fc fusion, point …
Method: as §1

[3] = molecular target: T3, human LAG-3 domain 1-2 Fc fusion, point …
Method: as §1

[4] = molecular target: T4, human LAG-3 domain 1-2 Fc fusion, point …
Method: as §1

[5] = molecular target: T5, human LAG-3 domain 1-2 Fc fusion, point …
Method: as §1

[6] = molecular target: T6, human LAG-3 domain 1-2 Fc fusion, point …
Method: as §1

[7] = molecular target: T7, human LAG-3 domain 1-2 Fc fusion, point …
Method: as §1

[8] = molecular target: T8, human LAG-3 domain 1-2 Fc fusion, point …
Method: as §1

[9] = molecular target: T9, human LAG-3 domain 1-2 Fc fusion, point …
Method: as §1

Row | Binder | KD mutant/KD wild type [1] [fold] | KD mutant/KD wild type [2] [fold] | KD mutant/KD wild type [3] [fold] | KD mutant/KD wild type [4] [fold] | KD mutant/KD wild type [5] [fold] | KD mutant/KD wild type [6] [fold] | KD mutant/KD wild type [7] [fold] | KD mutant/KD wild type [8] [fold] | KD mutant/KD wild type [9] [fold] | binding result [5] | binding result [9]
1 | Fab fragment of antibody 15572 (Fab, V domains shown, not shown: a dimerising Fc or GST, monomeric Fab made by GingisKHAN digestion of the IgG1) VH: QLQLQESGPGLVKPSETLSLTCTVSGDSISSSSYYWGWIRQPPGKGLEWIGSIFYSGNTYYNPSLKSRVTISVDTSKNQFSLKLSSVTAADTAVYYCAREDDFLTDYYGAFDIWGQGTMVTVSS VL: not shown | 0.7 | 0.7 | 0.8 | 0.7 |  | 0.9 | 0.8 | 0.5 |  | no binding (tested: 300 nM) | no binding (tested: 300 nM)
2 | Fab fragment of antibody 15532 (Fab, V domains shown, not shown: a dimerising Fc or GST, monomeric Fab made by GingisKHAN digestion of the IgG1) VH: QVQLQQWGAGLLRPSETLSLTCAVYGESFSGYYWNWIRQPPGKGLEWIGEINHSGSTNYNPSLKSRVTISVDTSKTQFSLKLSSVTAADTAVYYCARGWDLLDWNDYWNEYWGQGTLVTVSS VL: EIVLTQSPATLSLSPGERATLSCRASQSVSSYLAWYQQKPGQAPRLLIYDASNRATGIPARFSGSGSGTDFTLTISSLEPEDFAVYYCQQRSNWPLTFGGGTKVEIKR | 0.7 | 1.2 | 0.8 | 0.9 | 1.7 | 0.5 | 0.8 | 1 | 4 |  | 

Continued, values first:

Row | KD mutant/KD wild type [1] [fold] | KD mutant/KD wild type [2] [fold] | KD mutant/KD wild type [3] [fold] | KD mutant/KD wild type [4] [fold] | KD mutant/KD wild type [5] [fold] | KD mutant/KD wild type [6] [fold] | KD mutant/KD wild type [7] [fold] | KD mutant/KD wild type [8] [fold] | KD mutant/KD wild type [9] [fold] | binding result [5] | binding result [9] | Binder
3 | 0.8 | 0.7 | 1.7 | 0.8 | 0.7 | 1 | 1.2 | 3.1 | 0.7 |  |  | Fab fragment of antibody 15011 (Fab, V domains shown, not shown: a dimerising Fc or GST, monomeric Fab made by GingisKHAN digestion of the IgG1) VH: EVQLLESGGGLVQPGGSLRLSCAASGFDFRSYAMMWVRQAPGKGLEWVGGINGEVGGSNTYYAPAVKGRATISRDNSKNTLYLQMNSLRAEDTAVYYCVKGAGACGICNDDIDAWGQGTLVTVSS VL: SYELTQDPAVSVALGQTVRITCSGAGSYAGSYYYGWHQQKPGQAPVTVIYDNDKRPSNIPDRFSGSSSGNTASLTITGAQAEDEADYYCGSTNDNDDGGLFGSGTKVTVLG
4 | 0.5 | 0.3 | 1.2 | 0.8 |  | 1.1 | 1 | 0.5 |  | no binding (tested: 300 nM) | no binding (tested: 300 nM) | Fab fragment of antibody 15431 (Fab, V domains shown, not shown: a dimerising Fc or GST, monomeric Fab made by GingisKHAN digestion of the IgG1) VH: QVQLQQSGPGLVKPSQTLSLTCAISGDSVSSNSAAWNWIRQSPSRGLEWLGRTYYRSKWYNDYAVSVKSRITINPDTSKNQFSLQLNSVTPEDTAVYYCARDDDWNDFDYWGQGTLVTVSS VL: EIVLTQSPATLSLSPGERATLSCRASQSVSSYLAWYQQKPGQAPRLLIYDASNRATGIPARFSGSGSGTDFTLTISSLEPEDFAVYYCQQRSNWPLTFGGGTKVEIKR
